Data from patent CN116063478A (BEIJING SHUNYUANTIAN BIOLOGICAL PRODUCTS CO LTD, dated 2023).

Molecular target: 重组人Bromodomain结构域结合蛋白4(BRD4,区域49-170aa)(Biovision，货号:7643-100) (human, UniProt O60885 49-170)
Experiment: BLI (Fortebio Octet), binding kinetics; format not stated

Kd: 1.07 nM
B1: BRD4-3F14单抗 (antibody, V domains shown)
VH: VKPGGSLKLSCAASRGWVDPYRMSWVRQTPDKRLEWVAIQITGHDFDYYPDSVKGRFTISRDQDKQTLYLQMSSLKSEDTAMYYCLGPKAVKHLELWGQGTTVTVS
VL: DLVMTQTAPSVPVTPGESVSISCRSTAWWYVWWMLWQLYWFLQRPGQSPQLLIYVYHNLASGVPDRFSGSGSGTAFTLRISRVEAEDVGVYYCWHFPRHKCSFGSGTKLEIK
